Measurements from US20180236053A1 (CELLECTIS, published 2018).

B1: 25A10-V1 CAR (other)
chain: EVQLQQSGAELVRPGASVKLSCTASGFNIKDSLIHWVKQRPEQGLEWIGWIDPEDDKTKYAPKFQDKATLTADTSSNTAYLQLSTLTSEDTAIYYCVSRYINYYFAYWGQGTTLTVSSGGGGSGGGGSGGGGSDIVMTQSPSSLTVTAGEKVTMSCKSSQSLLHSGNQRNYLTWYQQKPGQPPKLLIYWASTRESGVPDRFTGSGSGTDFTLTISSVQAEDLAVYYCQNDYDYPYTFGGGTKLEIKGLAVSTISSFFPPGYQIYIWAPLAGTCGVLLLSLVITLYCKRGRKKLLYIFKQPFMRPVQTTQEEDGCSCRFPEEEEGGCELRVKFSRSADAPAYQQGQNQLYNELNLGRREEYDVLDKRRGRDPEMGGKPRRKNPQEGLYNELQKDKMAEAYSEIGMKGERRRGKGHDGLYQGLSTATKDTYDALHMQALPPR
notes: signal peptide left out here
B2: 28F5-V2 CAR (other)
chain: QIQLVQSGPELKKPGETVKISCKASGYTFTKYGMNWVKQTPGKGLKWMGWINTNSGEPTYAEEFKGRFAFSLETSASTAYLQINNLKNEDTATYFCARGAYYRYDGEVSYYAMDYWGQGTSVTVSSGGGGSGGGGSGGGGSQIILTQSPAIMSASLGERVTMTCTATSSLSSSYLHWYQQKPGSSPKLWIYSTSHLASGVPARFSGGGSGTSYSLTISSMEAEDAATYYCHQYHLSPYTFGGGTKLEIKTTTPAPRPPTPAPTIASQPLSLRPEACRPAAGGAVHTRGLDFACDIYIWAPLAGTCGVLLLSLVITLYCKRGRKKLLYIFKQPFMRPVQTTQEEDGCSCRFPEEEEGGCELRVKFSRSADAPAYQQGQNQLYNELNLGRREEYDVLDKRRGRDPEMGGKPRRKNPQEGLYNELQKDKMAEAYSEIGMKGERRRGKGHDGLYQGLSTATKDTYDALHMQALPPR
notes: Chimeric antigen receptor on T cells; signal peptide left out here
B3: 28F5-V1 CAR (other)
chain: QIQLVQSGPELKKPGETVKISCKASGYTFTKYGMNWVKQTPGKGLKWMGWINTNSGEPTYAEEFKGRFAFSLETSASTAYLQINNLKNEDTATYFCARGAYYRYDGEVSYYAMDYWGQGTSVTVSSGGGGSGGGGSGGGGSQIILTQSPAIMSASLGERVTMTCTATSSLSSSYLHWYQQKPGSSPKLWIYSTSHLASGVPARFSGGGSGTSYSLTISSMEAEDAATYYCHQYHLSPYTFGGGTKLEIKGLAVSTISSFFPPGYQIYIWAPLAGTCGVLLLSLVITLYCKRGRKKLLYIFKQPFMRPVQTTQEEDGCSCRFPEEEEGGCELRVKFSRSADAPAYQQGQNQLYNELNLGRREEYDVLDKRRGRDPEMGGKPRRKNPQEGLYNELQKDKMAEAYSEIGMKGERRRGKGHDGLYQGLSTATKDTYDALHMQALPPR
notes: as for B2
B4: GMB005-V1 CAR (other)
chain: EVQLLESGGGLVQPGGSLRLSCAVSGFTFNSFAMSWVRQAPGKGLEWVSAISGSGGGTYYADSVKGRFTISRDNSKNTLYLQMNSLRAEDTAVYFCAKDKILWFGEPVFDYWGQGTLVTVSSASGGGGSGGGGSGGGGSEIVLTQSPATLSLSPGERATLSCRASQSVSSYLAWYQQKPGQAPRLLIYDASNRATGIPARFSGSGSGTDFTLTISSLEPEDFAVYYCQQRSNWPPTFGQGTKVEIKGLAVSTISSFFPPGYQIYIWAPLAGTCGVLLLSLVITLYCKRGRKKLLYIFKQPFMRPVQTTQEEDGCSCRFPEEEEGGCELRVKFSRSADAPAYQQGQNQLYNELNLGRREEYDVLDKRRGRDPEMGGKPRRKNPQEGLYNELQKDKMAEAYSEIGMKGERRRGKGHDGLYQGLSTATKDTYDALHMQALPPR
B5: 25A10-V2 CAR (other)
chain: EVQLQQSGAELVRPGASVKLSCTASGFNIKDSLIHWVKQRPEQGLEWIGWIDPEDDKTKYAPKFQDKATLTADTSSNTAYLQLSTLTSEDTAIYYCVSRYINYYFAYWGQGTTLTVSSGGGGSGGGGSGGGGSDIVMTQSPSSLTVTAGEKVTMSCKSSQSLLHSGNQRNYLTWYQQKPGQPPKLLIYWASTRESGVPDRFTGSGSGTDFTLTISSVQAEDLAVYYCQNDYDYPYTFGGGTKLEIKTTTPAPRPPTPAPTIASQPLSLRPEACRPAAGGAVHTRGLDFACDIYIWAPLAGTCGVLLLSLVITLYCKRGRKKLLYIFKQPFMRPVQTTQEEDGCSCRFPEEEEGGCELRVKFSRSADAPAYQQGQNQLYNELNLGRREEYDVLDKRRGRDPEMGGKPRRKNPQEGLYNELQKDKMAEAYSEIGMKGERRRGKGHDGLYQGLSTATKDTYDALHMQALPPR
notes: as for B2
B6: 13F11-V2 CAR (other)
chain: QIQLVQSGPELKKPGETVKISCKASGYTFKKYGMNWVKQAPGKGLKWMGWINTNTGEPTYAEEFKGRFAFSLETSASTAYLQINNLKNEDTATYFCARWYYGSTPSSYTMDYWGQGTSVTVSSGGGGSGGGGSGGGGSETTVTQSPASLSVATGEKVTIRCITSTDIDDDMNWYQQKPGEPPKVLISEGNTLRPGVPSRFSSSGYGTDFVFTIENTLSEDVADYYCLQSNNMPYTFGGGTKLEIKTTTPAPRPPTPAPTIASQPLSLRPEACRPAAGGAVHTRGLDFACDIYIWAPLAGTCGVLLLSLVITLYCKRGRKKLLYIFKQPFMRPVQTTQEEDGCSCRFPEEEEGGCELRVKFSRSADAPAYQQGQNQLYNELNLGRREEYDVLDKRRGRDPEMGGKPRRKNPQEGLYNELQKDKMAEAYSEIGMKGERRRGKGHDGLYQGLSTATKDTYDALHMQALPPR
notes: as for B2

biological target: CD38 antigen on the surface of cells (U266 CD38+, MOLP8, Daudi, T-ALL cell lines, activated T cells) (human, UniProt P28907 1-300); assay: cell-based or functional assay

| ratio of degranulation against U266 CD38+ and U266 CD38- | Binder |
| --- | --- |
| > 2 ratio | B1 |
| > 2 ratio | B2 |
| > 2 ratio | B3 |
| > 2 ratio | B4 |

biological target: T1, CD38-Fc protein (produced by LakePharma) (UniProt P28907 43-300, limits assumed); assay: flow cytometry, CD38 Fc staining of CD38/TRAC double KO T cells transduced with rLV (FIG. 27C)
T1 construct: Staining reagent for CAR detection by flow cytometry; also called CD38-Fc fusion protein; not shown: Fc part
Description: The parameters are the following: T cells were activated by using Dynabeads CD3-CD28, the culture were made by using medium Xvivo+5% human serum heat inactivated+IL-2 20 ng/ml, a double KO (DKO) CD38-TRAC was performed by using a ratio of 2 μg TALEN mRNA per million of cells (5 million cells/cuvette); the transduction was performed by using rLV from Vectalys(France) at a MOI of 5.
The screening of the 4 CARs 25A10-v1, -v2, 28F5-v1 and -v2 after rLV transduction in DKO T cells has shown that all the CARs were expressed at the T cell surface with a high efficiency (>40%) and 3 of them above 80% (FIG. 27C). RQR8 expression was correlated with CAR expression (FIG. 27A). Most of the T cells were CD38 negative when T cells have been transduced by CD38 CARs (FIG. 27A). It is shown also that 60-85% of T cells endowed with the above 4 CARs were DKO TRAC/CD38 (FIG. 27B).

| % of T cells stained by CD38-Fc (CAR expression) | Binder |
| --- | --- |
| > 40% | B1 |
| > 40% | B2 |
| > 40% | B3 |
| > 40% | B5 |

biological target: T1, CD38-Fc protein (produced by LakePharma); assay: flow cytometry, CD38-Fc fusion protein staining of purified CD38-deficient T cells transfected with CAR mRNA (FIG. 15)
Description: T cells were purified from buffy coat samples and activated using anti-CD3/CD28 coated beads and IL-2. CD38-1 TALEN mRNA was transfected in T cells at day 4 after activation, 6 days later CD38 negative cells were purified by using magnetic separation (Miltenyi). The day after, CAR mRNAs were transfected. The CAR expression and degranulation capacity of CART cells were assessed 24 hours after the transfection. CAR expression and cytotoxic capacity of CART cells were assessed 48 hours after the transfection.
All CARs were detected 24 h after transfection except the 25A10-V3 However, the latter expressed anti-CD38 CAR above the background. The 13F11-V2, 25A10-V1, 25A10-V2 and 28F5-V2 were highly expressed (more than 80%).

| % of T cells stained by CD38-Fc (CAR expression) | Binder |
| --- | --- |
| > 80% | B1 |
| > 80% | B6 |
| > 80% | B2 |
| > 80% | B5 |
